Results as given in PMC2742357.
One block for each substance: values may come before it.

Columns and labels:
[1] = molecular target: unphosphorylated smooth muscle myosin (chicken (endogenous in gizzard)) (UniProt P10587)
[2] = molecular target: unphosphorylated smooth muscle myosin (chicken (endogenous in gizzard)) (UniProt P10587); assay: co-sedimentation
[3] = molecular target: unphosphorylated smooth muscle myosin (chicken (endogenous in gizzard)) (UniProt P10587); assay: ELISA
[4] = molecular target: phosphorylated smooth muscle myosin (chicken (endogenous in gizzard)) (UniProt P10587); assay: co-sedimentation
[5] = molecular target: phosphorylated smooth muscle myosin (pSMM) (Gallus gallus) (UniProt P10587); conditions: cited from earlier work
[6] = molecular target: smooth muscle myosin (phosphorylated) (Gallus gallus) (UniProt P10587); conditions: cited from earlier work

Sequence of MLCK (P11799 935-1906): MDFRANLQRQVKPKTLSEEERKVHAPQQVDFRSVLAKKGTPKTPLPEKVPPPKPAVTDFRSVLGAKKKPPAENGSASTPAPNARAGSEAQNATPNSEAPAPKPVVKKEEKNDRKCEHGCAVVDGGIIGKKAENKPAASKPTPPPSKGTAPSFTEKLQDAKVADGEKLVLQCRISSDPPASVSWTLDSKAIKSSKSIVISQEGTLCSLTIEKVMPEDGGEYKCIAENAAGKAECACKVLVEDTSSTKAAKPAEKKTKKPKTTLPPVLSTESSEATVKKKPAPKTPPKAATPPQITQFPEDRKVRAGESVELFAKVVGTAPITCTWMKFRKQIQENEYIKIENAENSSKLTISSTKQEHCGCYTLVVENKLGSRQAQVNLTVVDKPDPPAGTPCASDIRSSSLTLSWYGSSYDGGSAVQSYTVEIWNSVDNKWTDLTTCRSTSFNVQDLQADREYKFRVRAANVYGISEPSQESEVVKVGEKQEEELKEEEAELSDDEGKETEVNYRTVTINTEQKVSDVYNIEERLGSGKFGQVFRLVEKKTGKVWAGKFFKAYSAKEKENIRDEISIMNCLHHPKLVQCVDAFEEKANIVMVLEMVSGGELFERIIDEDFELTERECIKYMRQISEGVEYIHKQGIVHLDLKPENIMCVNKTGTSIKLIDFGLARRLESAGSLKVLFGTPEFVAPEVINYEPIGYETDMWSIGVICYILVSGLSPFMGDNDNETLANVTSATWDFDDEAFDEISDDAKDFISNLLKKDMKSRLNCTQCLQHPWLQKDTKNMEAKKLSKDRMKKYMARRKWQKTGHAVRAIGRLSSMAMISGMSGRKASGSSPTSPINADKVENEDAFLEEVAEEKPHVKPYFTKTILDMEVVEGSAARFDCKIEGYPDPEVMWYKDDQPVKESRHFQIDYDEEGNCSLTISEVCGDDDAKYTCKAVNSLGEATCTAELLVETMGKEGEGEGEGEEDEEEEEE

Kd [1]: 5 µM
percent of actin displaced from SMM filaments at 50 uM telokin [2]: 5%
percent of actin displaced from the SMM coverslip at 50 uM telokin [3]: 9%
Substance: telokin (natural protein)

Kd of the more weakly bound MLCK pool [4]: 23.8 µM
Kd of the more weakly bound MLCK pool [2]: 9.5 µM
percent of MLCK bound to SMM, spin 2 [2]: 75%
Substance: smooth muscle myosin light chain kinase (enzyme)

Substance: smooth muscle myosin light chain kinase (MLCK) (from UniProt P11799)
Kd [5]: > 100 µM

Substance: MLCK (from UniProt P11799)
Kd [6]: 0.77 µM
